This is an account of results in patent publication US20250270343A1 (Alector, published 2025).

In assay [1] the target is T1, full-length untagged human GPNMB expressed on cells (human, UniProt Q14956 23-572).
T1 construct: also used here for GPNMB on human monocyte-derived macrophages in the functional assays; also called huGPNMB; Freestyle293-huGPNMB+
T1 sequence: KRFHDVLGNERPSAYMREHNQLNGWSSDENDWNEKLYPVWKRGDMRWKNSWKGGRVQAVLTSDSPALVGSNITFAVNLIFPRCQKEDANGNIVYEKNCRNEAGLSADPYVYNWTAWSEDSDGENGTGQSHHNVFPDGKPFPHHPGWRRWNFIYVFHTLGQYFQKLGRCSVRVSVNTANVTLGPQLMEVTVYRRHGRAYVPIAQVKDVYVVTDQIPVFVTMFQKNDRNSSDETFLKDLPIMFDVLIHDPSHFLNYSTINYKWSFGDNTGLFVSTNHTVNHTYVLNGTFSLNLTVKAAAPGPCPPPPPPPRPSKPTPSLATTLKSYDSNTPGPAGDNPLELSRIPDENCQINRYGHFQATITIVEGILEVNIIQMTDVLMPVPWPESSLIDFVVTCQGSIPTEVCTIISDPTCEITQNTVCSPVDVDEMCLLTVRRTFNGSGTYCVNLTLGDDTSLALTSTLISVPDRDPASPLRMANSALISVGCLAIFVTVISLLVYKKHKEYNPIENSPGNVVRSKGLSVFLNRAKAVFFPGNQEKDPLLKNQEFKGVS
Kind of assay: FACS, FS293-huGPNMB+ cells. The method, then: Recombinant anti-GPNMB antibodies of the present disclosure were examined for their ability to bind human and/or mouse GPNMB expressed on Freestyle293-huGPNMB+ or B16F10 cells, respectively. B16F10 cells are a murine melanoma cell line from a C57BL/6J mouse that endogenously express high levels of mouse GPNMB. The antibodies were also tested for their ability to bind to a human macrophage cell line (U937 cells) engineered to express human GPNMB. Cells were harvested, plated at 100,000 cells/well in a 96-well round bottom plate, and incubated in 100 μl FACS buffer (PBS containing 2% FBS, 2 mM EDTA) containing anti-GPNMB monoclonal antibodies of the present disclosure for 30 minutes on ice. Cells were then washed and incubated in 100 ul FACS buffer containing 1 μg/ml APC-conjugated anti-human IgG secondary antibody for 30 minutes in ice. Cells were washed twice in cold FACS buffer and acquired on a BD FACS Canto. Data analysis and calculation of MFI values was performed with FlowJo (TreeStar) software version 10.0.7.
Importantly, several anti-GPNMB antibodies of the present disclosure also bound to the human macrophage cell line U937 cells engineered to express human GPNMB (U937/huGPNMB+) (FIG. 2C). In FIG. 2C, the first data point in each pair corresponds to U937/huGPNMB+ cells, and the second data point in each pair corresponds to U937/huGPNMB− cells. No anti-GPNMB antibodies bound to U937 cells deficient in human GPNMB expression (U937/huGPNMB−).
In general terms: Flow cytometry measures light scatter and fluorescence of single cells or particles in a stream.

In assay [2] the target is T2, soluble cynomolgus GPNMB (recombinant extracellular domain) (cynomolgus, UniProt Q14956 23-499 (human entry), limits assumed).
T2 chain: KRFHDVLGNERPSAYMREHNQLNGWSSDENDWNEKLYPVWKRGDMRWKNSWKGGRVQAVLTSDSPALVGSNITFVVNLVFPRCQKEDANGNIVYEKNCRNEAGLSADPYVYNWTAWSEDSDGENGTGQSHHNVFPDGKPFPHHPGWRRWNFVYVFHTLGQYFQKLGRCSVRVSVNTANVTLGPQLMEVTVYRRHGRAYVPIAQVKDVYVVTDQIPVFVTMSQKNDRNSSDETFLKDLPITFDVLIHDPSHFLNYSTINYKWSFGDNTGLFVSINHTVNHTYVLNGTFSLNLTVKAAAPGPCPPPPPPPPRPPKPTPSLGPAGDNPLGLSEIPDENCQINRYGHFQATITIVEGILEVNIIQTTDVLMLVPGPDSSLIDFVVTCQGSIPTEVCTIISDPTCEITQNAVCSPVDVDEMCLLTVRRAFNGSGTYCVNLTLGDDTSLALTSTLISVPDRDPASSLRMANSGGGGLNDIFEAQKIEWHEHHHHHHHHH
Description: SPR Carterra, Ab immobilized. The essentials: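 Antibodies amine-coupled on HC200M chip in a 96-spot array; recombinant GPNMB ECD analytes injected at 2.5–600 nM, lowest to highest, without regeneration. Running buffer HBS-EP+ with 0.5 mg/ml BSA; two buffer blanks between species series. Kinetics fitted to yield affinity estimates.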

The target in assay [3] is T1, full-length untagged human GPNMB …. Kind of assay: FACS titration, FS293-huGPNMB+ cells. As to the method: Cell-based binding measurements were also performed to measure the apparent affinities of anti-GPNMB antibodies of the present disclosure to cell-surface expressed GPNMB. Serial dilutions of the monoclonal anti-GPNMB antibodies were added to 100,000 Freestyle293-huGPNMB+ or B16F10 cells and allowed to achieve binding equilibrium at 4° C. After addition of fluorescently labeled secondary antibody and brief washing steps, MFI values as a function of titrated antibody concentration was recorded via FACS analysis. Curves were fit using nonlinear regression analysis with Graphpad Prism 6 software.

B1: anti-GPNMB antibody GPN-06 (antibody, human IgG1, V domains shown)
VH: QVQLQQSGAELVKPGASVKLSCKASGYTFTNYYMYWVKQRPGQGLEWIGEINTRNGGTNFNEKFKSKATLTVDKSSSTAYMQLSSLTSEDSAVYYCTTGFAYWGQGTLVTVSA
VL: DIQMTQSPASLSASVGETVTITCRASENIYSYLVWYQQNQGKSPQLLVYNAKTLAEGVPSRFSGSGSGTQFSLKINSLQPEDFGTYYCQHHYGTPFTFGSGTKLEIK
notes: chimeric
The term Kd denotes the equilibrium constant for the complex coming apart. One may read the koff as a measure of how fast the partners let go of each other. What is called kon is the second-order rate constant of association. The term EC50 denotes the concentration that produces a half-maximal response. The low end stands for higher potency in that assay, the high end for lower potency in that assay. For B1, the “MFI fold over background” value in assay [1] amounted to 66.4 fold. In assay [2], the Kd was determined as 97.9 nM, the koff is 0.0021 s⁻¹ and the on-rate constant (kon) was 21000 M⁻¹ s⁻¹. Also, in assay [3], the EC50 amounted to 1.61 nM.

B2: anti-GPNMB antibody GPN-52 (antibody, human IgG1, V domains shown)
VH: DVQLQESGPGLVKPSQTVFLTCTVTGISITTGNYRWSWIRQFPGNKLEWIGYIYYSGTITYNPSLTSRITITRDTPKNEFFLEMNSLTAEDTATYYCARDLTHWYFDVWGTGTTVTVSS
VL: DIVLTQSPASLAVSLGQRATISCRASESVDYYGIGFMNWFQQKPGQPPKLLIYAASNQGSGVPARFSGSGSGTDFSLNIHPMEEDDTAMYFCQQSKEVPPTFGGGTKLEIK
notes: chimeric
In the case of B2, in assay [1], the “MFI fold over background” value stood at 7.6 fold. Besides, in assay [2], the Kd was found to be 40.1 nM, the koff was determined as 0.0036 s⁻¹ and the kon stood at 90000 M⁻¹ s⁻¹. This molecule displayed an EC50 in assay [3] of 1.27 nM.

B3: anti-GPNMB antibody GPN-61 (antibody, human IgG1, V domains shown)
VH: DVQLQESGPGLVKPSQTVFLTCTVTGISITTGNYRWSWIRQFPGNKLEWIGYIYYSGTITYNPSLTSRTTITRDTPKNQFFLEMSSLTAEDTATYFCARDLRHWYFDVWGTGTTVTVSS
VL: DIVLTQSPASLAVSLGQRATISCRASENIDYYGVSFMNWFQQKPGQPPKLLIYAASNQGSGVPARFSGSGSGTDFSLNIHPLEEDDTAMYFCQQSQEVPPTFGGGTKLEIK
notes: chimeric
For B3, the “MFI fold over background” value in assay [1] came out at 18.6 fold. For the same molecule, in assay [2], the dissociation constant (Kd) turned out to be 47.9 nM, the koff came out at 0.0041 s⁻¹ and the on-rate (kon) was 86000 M⁻¹ s⁻¹. In addition, in assay [3], the EC50 was found to be 7.25 nM.
